{"source": "paper PMC12740422", "key": {"[1]": {"target": "AcrIE9 (Pseudomonas aeruginosa)", "test": "SEC; preparative SEC of AcrIE9 during purification, HiLoad 26/600 Superdex 75 pg; 300 mM NaCl, 5% glycerol, 2 mM DTT, 20 mM HEPES pH 7.0"}, "[2]": {"target": "AcrIE9 (Pseudomonas aeruginosa)", "test": "SEC; analytical SEC of the pooled dimeric species of AcrIE9 alone, Superdex 200 increase 10/300 GL; 150 mM NaCl, 2 mM DTT, 5% glycerol, 20 mM HEPES pH 7.0"}}}
{"substance": "AcrIE9 (natural protein)", "values": [{"measurement": "stoichiometry N", "setting": "[1]", "result": 2}, {"measurement": "stoichiometry N", "setting": "[2]", "result": 2}]}
